In experiment [1] the target is M3 peptide (complementary 11th β-strand peptide of split GFP). Kind of experiment: other fluorescence titration; fluorescence complementation kinetics, pseudo-first order: 0.1 µM M3 peptide with 0.1–30 µM total sFP, TN buffer pH 8.0 with 1 mM DTT, 5 mM EDTA, 0.05% CHAPS, 25 °C, 14 hours; kobs1 against the concentration of sFP monomers fitted by a line; binding irreversible.

In experiment [2] the target is sGFPori (sGFP 1–10 OPT), recombinant. Kind of experiment: SEC; size-exclusion HPLC of purified, non-complemented sFPs at high concentration; sGFP2 (ReAsH-labelled) at 20 µM, concentrations of the other sFPs not stated. A general note: Size exclusion chromatography separates by hydrodynamic size, large species first.
For experiment [3] the target is unchanged. Kind of experiment: fluorescence polarisation; steady-state fluorescence anisotropy of ReAsH-labelled sFP at 20, 10, 5, 2.5, 1.25 and 0.5 µM, after equilibrium at RT, triplicate; apparent equilibrium constant of dimer formation (monomers to dimer).

As usually defined, the kon is a measure of how fast the partners come together. In general, stoichiometry N refers to the number of molecules, sites or subunits per partner or assembly. In the case of “sGFPori (sGFP 1–10 OPT), recombinant (domain or fragment)”, the kon in experiment [1] was 70 M⁻¹ s⁻¹. For the same substance, in experiment [2], the stoichiometry N stood at 2. Further, the Ka in experiment [3] came out at 320000 M⁻¹.

The values are drawn from paper PMC5871787.
